Test results from publication PMC2119506.

Target: CSVTCG binding protein (human (endogenous in A549))
Assay: radioligand binding

thrombospondin (from UniProt P07996 19-1170) (natural protein)
percent inhibition of binding: 64 % inhibition
